This passage reports self-cleavage results from the RNAGym collection of RNA variant scans (doi:10.7554/elife.90254).

B1: OR4K15 (parent)
chain: GUUAACGGUCAUAGGCCAUGGAAACUAGGAGCACCAUUUCGCUGCCAGUGAAGAAAUGAACAAAGAAAAUCUGGGCCAGGCAGGCAUCAAAAGAAAUAGUCUUGCGCUCAACCAGAAAGUCUGUAAUCAUUUUAAGGGUA

This data set covers variants of B1. In words: self-cleavage, relative activity (ratio to wild type); higher = more cleavage; in vitro, sequencing; the parent is a self-cleaving ribozyme.
For GUUAACGGUCAUAGGCCAUGGAAACUAGGAGCACCAUUUCGCUGCCAGUGAAGAAGUGAACAGAGAAAAUCUGGGCCAGGCAGGCAUCAAAAGAAAUAGUCUUGCGCUCAACCAGAAAGUCUGUAAUCAUUUUAAGGGUA [A56G A63G], the self-cleavage came out at 0.85.

On to GUUAACGGUCAUAGGCCAUGGAAACUAGGAGCACCAUUUCGCUGCCAGUGAAGAACUGAACAAAGGAAAUCUGGGCCAGGCAGGCAUCAAAAGAAAUAGUCUUGCGCUCAACCAGAAAGUCUGUAAUCAUUUUAAGGGUA [A56C A66G], for which the self-cleavage is 0.72.

As for GUUAACGGUCAUAGGCCAUGGAAACUAGGAGCACCAUUUCGCUGCCAGUGAAGAUAUGAACAAAGAAAAUCUGGGCCAGGCAGGCAUCAAAAGAAAUAGUCUUGCGCUCAACCAGAAAGUCUGUAACCAUUUUAAGGGUA [A55U U127C], the self-cleavage was determined as 0.93.

Regarding GUUAACGGUCAUAGGCCAUGGAAACUAGGAGCACCAUUUCGCUGCCAGUGAAGAUAUGAACAAAGAAAAUCUGGGCCAGGCAGGCAUCAAAAGAAAUAGUCUUGCGCUCAACCAGAAAGUCUGUAAACAUUUUAAGGGUA [A55U U127A], the self-cleavage was 2.63.

On to GUUAACGGUCAUAGGCCAUGGAAACUAGGAGCACCAUUUCGCUGCCAGUGAAGAUAUGAACAAAGAAAAUCUGGGCCAGGCAGGCAUCAAAAGAAAUAGUCUUGCGCUCAACCAGAAAGUCUGUAAUCAUUUUAAGAGUA [A55U G137A], for which the self-cleavage worked out at 1.23.

GUUAACGGUCAUAGGCCAUGGAAACUAGGAGCACCAUUUCGCUGCCAGUGAAGAUAUGGACAAAGAAAAUCUGGGCCAGGCAGGCAUCAAAAGAAAUAGUCUUGCGCUCAACCAGAAAGUCUGUAAUCAUUUUAAGGGUA [A55U A59G]: the self-cleavage is 0.75.

Turning to GUUAACGGUCAUAGGCCAUGGAAACUAGGAGCACCAUUUCGCUGCCAGUGAAGAAGUGAGCAAAGAAAAUCUGGGCCAGGCAGGCAUCAAAAGAAAUAGUCUUGCGCUCAACCAGAAAGUCUGUAAUCAUUUUAAGGGUA [A56G A60G], the self-cleavage turned out to be 0.63.

In the case of GUUAACGGUCAUAGGCCAUGGAAACUAGGAGCACCAUUUCGCUGCCAGUGAAGAAGUGAACAAAGUAAAUCUGGGCCAGGCAGGCAUCAAAAGAAAUAGUCUUGCGCUCAACCAGAAAGUCUGUAAUCAUUUUAAGGGUA [A56G A66U], the self-cleavage was found to be 0.92.

For GUUAACGGUCAUAGGCCAUGGAAACUAGGAGCACCAUUUCGCUGCCAGUGAAGAAGUGAACGAAGAAAAUCUGGGCCAGGCAGGCAUCAAAAGAAAUAGUCUUGCGCUCAACCAGAAAGUCUGUAAUCAUUUUAAGGGUA [A56G A62G], the self-cleavage was determined as 1.92.

Take GUUAACGGUCAUAGGCCAUGGAAACUAGGAGCACCAUUUCGCUGCCAGUGAAGAAGUGAACCAAGAAAAUCUGGGCCAGGCAGGCAUCAAAAGAAAUAGUCUUGCGCUCAACCAGAAAGUCUGUAAUCAUUUUAAGGGUA [A56G A62C]: the self-cleavage is 1.26.

Turning to GUUAACGGUCAUAGGCCAUGGAAACUAGGAGCACCAUUUCGCUGCCAGUGAAGAUAUGAACAAAGAAAAUCUGGGCCAGGCAGGCAUCAAAAGAAAUAGUCUUGCGCUCAACCAGAAGGUCUGUAAUCAUUUUAAGGGUA [A55U A118G], the self-cleavage is 1.43.

Consider GUUAACGGUCAUAGGCCAUGGAAACUAGGAGCACCAUUUCGCUGCCAGUGAAGAUAUGAACAAAGAAAAUCUGGGCCAGGCAGGCAUCAAAAGAAAUAGUCUUGCGCUCAACCAGGAAGUCUGUAAUCAUUUUAAGGGUA [A55U A116G], for which the self-cleavage was 0.88.

GUUAACGGUCAUAGGCCAUGGAAACUAGGAGCACCAUUUCGCUGCCAGUGAAGAUAUUAACAAAGAAAAUCUGGGCCAGGCAGGCAUCAAAAGAAAUAGUCUUGCGCUCAACCAGAAAGUCUGUAAUCAUUUUAAGGGUA [A55U G58U]: the self-cleavage was determined as 1.98.

Turning to GUUAACGGUCAUAGGCCAUGGAAACUAGGAGCACCAUUUCGCUGCCAGUGAAGAACUGAACAAAGAAGAUCUGGGCCAGGCAGGCAUCAAAAGAAAUAGUCUUGCGCUCAACCAGAAAGUCUGUAAUCAUUUUAAGGGUA [A56C A68G], the self-cleavage is 1.59.

Take GUUAACGGUCAUAGGCCAUGGAAACUAGGAGCACCAUUUCGCUGCCAGUGAAGAUAUGAACAAAGAAAAUCUGGGCCAGGCAGGCAUCAAGAGAAAUAGUCUUGCGCUCAACCAGAAAGUCUGUAAUCAUUUUAAGGGUA [A55U A91G]: the self-cleavage was determined as 1.73.

Consider GUUAACGGUCAUAGGCCAUGGAAACUAGGAGCACCAUUUCGCUGCCAGUGAAGAUAUGAACAAAGAAAAUCUGGGCCAGGCUGGCAUCAAAAGAAAUAGUCUUGCGCUCAACCAGAAAGUCUGUAAUCAUUUUAAGGGUA [A55U A82U], for which the self-cleavage came out at 0.28.

As for GUUAACGGUCAUAGGCCAUGGAAACUAGGAGCACCAUUUCGCUGCCAGUGAAGAACUGAACAAAGAAAAUCUGGGCCAGGCGGGCAUCAAAAGAAAUAGUCUUGCGCUCAACCAGAAAGUCUGUAAUCAUUUUAAGGGUA [A56C A82G], the self-cleavage is 0.56.

On to GUUAACGGUCAUAGGCCAUGGAAACUAGGAGCACCAUUUCGCUGCCAGUGAAGAAGUGAACAAAGAAGAUCUGGGCCAGGCAGGCAUCAAAAGAAAUAGUCUUGCGCUCAACCAGAAAGUCUGUAAUCAUUUUAAGGGUA [A56G A68G], for which the self-cleavage came out at 1.51.

For the variant GUUAACGGUCAUAGGCCAUGGAAACUAGGAGCACCAUUUCGCUGCCAGUGAAGAUAUGAACAAAGAAAAUCUGGGCCAGGCAGGCAUCAGAAGAAAUAGUCUUGCGCUCAACCAGAAAGUCUGUAAUCAUUUUAAGGGUA [A55U A90G], the self-cleavage stood at 1.36.

With GUUAACGGUCAUAGGCCAUGGAAACUAGGAGCACCAUUUCGCUGCCAGUGAAGAACUGAACAAAGAAAAUCUGGGCCAGGCAGGCAUCAAAAGAAAUAGUCUUGCGCUCAACCAGAAAGUCUGUCAUCAUUUUAAGGGUA [A56C A125C], the self-cleavage came out at 0.7.

For GUUAACGGUCAUAGGCCAUGGAAACUAGGAGCACCAUUUCGCUGCCAGUGAAGAACUGAACAAAGAAAAUCUGGGCCAGGCAGGCAUCAAAAGAAAUAGUCUUGCGCUCAACCAGAAAGUCUGUAAUCGUUUUAAGGGUA [A56C A129G], the self-cleavage turned out to be 1.35.

As for GUUAACGGUCAUAGGCCAUGGAAACUAGGAGCACCAUUUCGCUGCCAGUGAAGAUAUGAACAAAGAAAAUCUGGGCCAGGCAGGCAUCAAAAGAAAUAGUCUUGCGCUCAACCAGAAAGUCUGUAAUCACUUUAAGGGUA [A55U U130C], the self-cleavage is 1.13.

On to GUUAACGGUCAUAGGCCAUGGAAACUAGGAGCACCAUUUCGCUGCCAGUGAAGAUUUGAACAAAGAAAAUCUGGGCCAGGCAGGCAUCAAAAGAAAUAGUCUUGCGCUCAACCAGAAAGUCUGUAAUCAUUUUAAGGGUA [A55U A56U], for which the self-cleavage came to 0.55.

Take GUUAACGGUCAUAGGCCAUGGAAACUAGGAGCACCAUUUCGCUGCCAGUGAAGAUGUGAACAAAGAAAAUCUGGGCCAGGCAGGCAUCAAAAGAAAUAGUCUUGCGCUCAACCAGAAAGUCUGUAAUCAUUUUAAGGGUA [A55U A56G]: the self-cleavage was 1.38.

Regarding GUUAACGGUCAUAGGCCAUGGAAACUAGGAGCACCAUUUCGCUGCCAGUGAAGAUAUGAACAAAGAAAAUCUGGGCCAGGCAGGCAUCAAAAGAAAUAGUCUCGCGCUCAACCAGAAAGUCUGUAAUCAUUUUAAGGGUA [A55U U103C], the self-cleavage worked out at 0.91.

In the case of GUUAACGGUCAUAGGCCAUGGAAACUAGGAGCACCAUUUCGCUGCCAGUGAAGAACUGAACAAAGAAAAUCUGGGCCAGGCAGGCAUCAAAAGAAAUAGUCUUGCGCUCAACCAGAGAGUCUGUAAUCAUUUUAAGGGUA [A56C A117G], the self-cleavage is 1.17.

GUUAACGGUCAUAGGCCAUGGAAACUAGGAGCACCAUUUCGCUGCCAGUGAAGAUAUGAACAAAGAAAAUCUGGGCCAGGCAGGCAUCAAAAGAAAUAGUCUUGCGCUCGACCAGAAAGUCUGUAAUCAUUUUAAGGGUA [A55U A110G]: the self-cleavage was 0.23.

As to GUUAACGGUCAUAGGCCAUGGAAACUAGGAGCACCAUUUCGCUGCCAGUGAAGAUACGAACAAAGAAAAUCUGGGCCAGGCAGGCAUCAAAAGAAAUAGUCUUGCGCUCAACCAGAAAGUCUGUAAUCAUUUUAAGGGUA [A55U U57C], the self-cleavage is 1.76.

On to GUUAACGGUCAUAGGCCAUGGAAACUAGGAGCACCAUUUCGCUGCCAGUGAAGAACUGAACAAAGAAAAUCUGGGCCUGGCAGGCAUCAAAAGAAAUAGUCUUGCGCUCAACCAGAAAGUCUGUAAUCAUUUUAAGGGUA [A56C A78U], for which the self-cleavage came to 0.35.

GUUAACGGUCAUAGGCCAUGGAAACUAGGAGCACCAUUUCGCUGCCAGUGAAGAUAUGAACAAAGAAAAUCUGGGCCAGGCAGGCAUCAAAAGAAGUAGUCUUGCGCUCAACCAGAAAGUCUGUAAUCAUUUUAAGGGUA [A55U A96G]: the self-cleavage was determined as 1.61.

GUUAACGGUCAUAGGCCAUGGAAACUAGGAGCACCAUUUCGCUGCCAGUGAAGAUAUGAACAAAGAAAAUCUGGGCCAGGCAGGCAUCAAAAGAAAUAGUCUUGCGCUCACCCAGAAAGUCUGUAAUCAUUUUAAGGGUA [A55U A111C]: the self-cleavage is 0.06.

For GUUAACGGUCAUAGGCCAUGGAAACUAGGAGCACCAUUUCGCUGCCAGUGAAGAACUGAACGAAGAAAAUCUGGGCCAGGCAGGCAUCAAAAGAAAUAGUCUUGCGCUCAACCAGAAAGUCUGUAAUCAUUUUAAGGGUA [A56C A62G], the self-cleavage turned out to be 0.6.

On to GUUAACGGUCAUAGGCCAUGGAAACUAGGAGCACCAUUUCGCUGCCAGUGAAGAAGUGAACAAGGAAAAUCUGGGCCAGGCAGGCAUCAAAAGAAAUAGUCUUGCGCUCAACCAGAAAGUCUGUAAUCAUUUUAAGGGUA [A56G A64G], for which the self-cleavage is 1.44.

GUUAACGGUCAUAGGCCAUGGAAACUAGGAGCACCAUUUCGCUGCCAGUGAAGAUAUGAACAAAGAAGAUCUGGGCCAGGCAGGCAUCAAAAGAAAUAGUCUUGCGCUCAACCAGAAAGUCUGUAAUCAUUUUAAGGGUA [A55U A68G]: the self-cleavage is 1.44.

For GUUAACGGUCAUAGGCCAUGGAAACUAGGAGCACCAUUUCGCUGCCAGUGAAGAUAUGAACAAAGAAAAUCUGGGCCAGGCAGGCAUCAAAAGAAAUAGUCUUGCGCUUAACCAGAAAGUCUGUAAUCAUUUUAAGGGUA [A55U C109U], the self-cleavage was determined as 0.31.

As for GUUAACGGUCAUAGGCCAUGGAAACUAGGAGCACCAUUUCGCUGCCAGUGAAGAUAUGAACAAAGAAAAUCUGGGCCAGGCAGGCAUCAAAAGUAAUAGUCUUGCGCUCAACCAGAAAGUCUGUAAUCAUUUUAAGGGUA [A55U A94U], the self-cleavage is 0.43.

On to GUUAACGGUCAUAGGCCAUGGAAACUAGGAGCACCAUUUCGCUGCCAGUGAAGAUAUGAACAAAGAAAAUCUGGGCCAGGCAGGCAUCAAAAGGAAUAGUCUUGCGCUCAACCAGAAAGUCUGUAAUCAUUUUAAGGGUA [A55U A94G], for which the self-cleavage came to 1.59.

In the case of GUUAACGGUCAUAGGCCAUGGAAACUAGGAGCACCAUUUCGCUGCCAGUGAAGAUAUGAACAAAGAAAAUCUGGGCCAGGCAGGCAUCAAAAGAAAUAGUCUUGCGCUCAACCAGAGAGUCUGUAAUCAUUUUAAGGGUA [A55U A117G], the self-cleavage is 1.77.

For GUUAACGGUCAUAGGCCAUGGAAACUAGGAGCACCAUUUCGCUGCCAGUGAAGAUAUGAACAAAGAAAAUCUGGGCCAGGCAGGCAUCAAAAGAAAUAGUCUUGCGCUCAACCAGAUAGUCUGUAAUCAUUUUAAGGGUA [A55U A117U], the self-cleavage was 0.72.

For GUUAACGGUCAUAGGCCAUGGAAACUAGGAGCACCAUUUCGCUGCCAGUGAAGAUAUGAACAAAGAAAAUCUGGGCCAGGCAGGCAUCAAAAGAAAUAGCCUUGCGCUCAACCAGAAAGUCUGUAAUCAUUUUAAGGGUA [A55U U100C], the self-cleavage was 2.69.

On to GUUAACGGUCAUAGGCCAUGGAAACUAGGAGCACCAUUUCGCUGCCAGUGAAGAUAUGAACAAAGAAAAUCUGGGCCAGGCAGGCAUCAAAAGAAAUAGACUUGCGCUCAACCAGAAAGUCUGUAAUCAUUUUAAGGGUA [A55U U100A], for which the self-cleavage stood at 0.82.
